{
  "source": "paper PMC6002714",
  "about": "“Bovine Herpesvirus 1 UL49.5 Interacts with gM and VP22 To Ensure Virus Cell-to-Cell Spread and Virion Incorporation: Novel Role for VP22 in gM-Independent UL49.5 Virion Incorporation” (Journal of Virology, 2018)",
  "biological_target": "the molecule itself",
  "test": "non-reducing SDS-PAGE with immunoblot; lysates of virus-infected MDBK cells separated by SDS-PAGE without DTT (compared with +DTT), immunoblotted with anti-UL49.5 or anti-gM; shows only covalently (disulfide) linked complexes",
  "data": [
    {"protein": "BHV-1 envelope glycoprotein M (gM) (natural protein, glycoprotein M of bovine herpesvirus type 1, encoded by the UL10 gene; gM open reading frame nt 84816 to 86051 of GenBank JX898220 (complementary strand; residues up to 411); expressed from the viral genome; 36-kDa immature, EndoH-sensitive gM in infections with the C42S mutants; also called 43-kDa mature gM; 36-kDa immature gM; source: BHV-1 wt or UL49.5 mutant virus-infected MDBK cells, in …) MAGSAQPAAVHWRLWLAQVGVFAALALLLLITLIGAASPGAGLPCFYAAIVNYNARNLSADGGAWAQRELGARHPALFLETPTTAAFSAYTAVVLLAVAAFDVAAAIIIRRENSGGFAAAYHMNALATLATPPGALLLGALAAWTLQAAVLLLSHKIMVLAAATYLAHAGAAAAFVGLFCTAGLPGAEYAQAVHALRERSPRAHRLLGPGRAVMINLAGGLLALIIGTAPLMLGQLLGAGLGLSLAQTVVAGVTVFCLAAVLFLVLTELVLSRYTQVLPGPAFGTLVAASCIAVASHDYFHQLRGVVRTQAPGLPLGVKLALAGVALLAVAMLVLRLVRACLHHRRKGSAFYGHVSAARQQAARYIARARSSRGMAPLEGDAAALLDRGVASDDEEAVYEADARPARQPYR", "values": [
      {"measurement": "stoichiometry N", "value": 2}
    ]}
  ]
}
